Assays:
c-src tyrosine kinase = experiment: c-src immune complex kinase assay in RANK −/− osteoclast precursors infected with RANK retrovirus; type: cell-based, mouse; conditions: cells differentiated after retroviral infection; background = uninfected RANK −/− cells
Method: Experiments were conducted in which DNA encoding wild-type or human RANK/TRAF6 binding mutant (RANK Δ340-421) was introduced into hematopoietic cells isolated from RANK −/− mice. Full-length and mutant human RANK DNAs were subcloned into the pBMNZ retroviral vector as previously described (Kinsella and Nolan, 1996, Human Gene Therapy 7:1405-1413). Infectious RANK-containing retrovirus was produced in 293-E Phoenix packaging cells as described (Kinsella and Nolan, 1996). Supernatants from these cells were used as a source of infectious virus particles.
The generation of the RANK −/− mice used in these assays has been described previously (Dougall et al., 1999). Spleen cells were isolated from 3-6 week old RANK−/− mice and enriched for osteoclast precursors by depleting the initial cell population of various types of cells other than osteoclast precursors. For this “depletion” step, the cells were incubated with biotinylated antibodies against CD3 (specific for T cells), Ter-119 (specific for erythrocytes), and GR-1 (specific for granulocytes). After the antibodies had bound to their respective target cells, streptavidin-conjugated magnetic beads were added to the culture, and the mixture of cells was passed over magnetic columns (MACS depletion columns; MILLTENNYI). […]
To induce c-src and F-actin rings, recombinant mRANK-L/leucine zipper protein was added to the cultures at a concentration of 1 μg/ml for various times after which the cells were lysed in a buffer containing 50 mM HEPES (pH 7.2), 10% glycerol, 250 mM NaCl and 1% Triton X-100. […] C-src activity in the immune complex was monitored using a commercially available assay kit (Upstate Biotechnology, Lake Placid, N.Y.). […] The phosphorylated substrate peptide was then separated from the residual labeled ATP using phosphocellulose paper and labeled peptide was quantified using a scintillation counter. […]

[1] = test system: primary hematopoietic cells from the RANK −/− mice; experiment: F-actin ring formation, phalloidin staining; type: cell-based, mouse; conditions: 5 days in 40 ng/ml CSF-1 and 200 ng/ml mRANK-L
Text: To detect F-actin rings, cells are fixed, such as by exposure to 3% paraformaldehyde, and visualized by staining cells with a fluorescent probe that binds specifically with actin. A suitable fluorescent tag is phalloidin, which can be obtained from Molecular Probes, Eugene, Oreg. The fluorescent signal is detected, for example, using a standard fluorescent microscope, and the number of cells having F-actin rings is visually quantified. An F-actin ring is identified as a continuous ring of F-actin at the periphery of a cell, and these distinct structures are visible through a microscope.
A procedure to detect F-actin rings was carried out as follows. Primary hematopoietic cells from the RANK −/− mice were infected with retroviral constructs encoding either the full-length human RANK cDNA or the RANK/TRAF6 binding mutant (RANK Δ340-421). Cells were cultured on LabTek Chamber slides with #1 borosilicate coverglasses (Nalge/Nunc). After incubation for 5 days in MEM containing 10% fetal bovine serum containing 40 ng/ml CSF-1 and 200 ng/ml mRANK-L. The media was aspirated, washed twice in PBS and then fixed in a solution of 3% paraformaldehyde for 10 minutes, followed by quenching in 50 mM NH4Cl. […] The fluorescent signal was detected using a standard fluorescent microscope, and F-actin rings were identified as continuous rings of F-actin at the periphery of individual cells.

[2] = test system: spleen cells from RANK −/− mice; experiment: CaPO4 resorption (pit formation) assay; type: cell-based, mouse; conditions: 5 days in 40 ng/ml CSF-1 and 200 ng/ml mRANK-L on CaPO4 film
Text: The resorption of CaPO4, upon which this assay is based, is considered to be a measure of osteoclast activity. Spleen cells were isolated from 3-6 week old RANK −/− mice and treated as described in Example 9 to remove cells expressing the CD3, Ter-119, and GR-1 antigens. Cells not expressing any of these antigens were harvested and infected as described in Example 9 with retroviral vector particles containing full-length or TRAF6 binding site deletion mutants of RANK.
Following infection, the spleen cells were harvested and plated in MEM containing 10% fetal bovine serum containing 40 ng/ml CSF-1 and 200 ng/ml mRANK-L onto 16 well quartz slides coated with a thin film of CaPO4 (Osteologic, BD Biosystems). After 5 days in culture, the slides were washed, the cells removed by washing with bleach, and the slides washed again with buffer. […] The number of pits in the CaPO4 film is a measure of the extent to which the RANK-L induced the cells grown on that slide to differentiate into osteoclasts.
If desired, the CaPO4 film can be stained using a 0.5% solution of alizarin red for 4 to 5 minutes followed by washing in water. After staining, the resorptive lacunae are visualized by phase contrast microscopy as a clear area on a red background.

[3] = test system: mouse TRAP promoter (SEQ ID NO:12); experiment: mouse TRAP promoter/luciferase reporter in 293/EBNA cells; type: cell-based; conditions: 24 hours after transfection, 0.4 ng RANK vector, 20 ng RANK-L vector
Text: (§1) This example describes the activation of the TRAP promoter. A 2.6 kb DNA fragment containing the human TRAP promoter was obtained by digesting the plasmid pBL2HT2.2 with the restriction endonuclease ApaI. The cloning of the human TRAP gene 5′ region and the construction of pBL2HT2.2 are fully described in Reddy et al. (Bone 16:587-593 (1995)). A DNA containing the mouse TRAP promoter (SEQ ID NO:12) and a DNA containing the murine MMP-9 promoter (SEQ ID NO:11) also were used for these experiments. DNAs containing the promoters were fused to the luciferase reporter gene. These promoter/reporter constructs were transfected into human 293/EBNA cells along with various combinations of expression vectors that encoded full-length human RANK (SEQ ID NO:2) and human full-length RANK-L proteins (SEQ ID NO:6).
For the mouse TRAP promoter (SEQ ID NO:12), 2×10^5 293/EBNA cells were transfected using DEAE/dextran with 40 ng of a plasmid encoding approximately 2 kb of the mouse TRAP promoter (SEQ ID NO:12) fused to a luciferase reporter, 20 ng of an expression vector encoding RANK-L (SEQ ID NO:6), and 0.4 ng of an expression vector encoding RANK (SEQ ID NO:2). Twenty four hours after transfection, luciferase activity in cell lysates was measured according to manufacturer's instructions (Promega) using a EG&G/Berthold luminometer. […]

human TRAP promoter = experiment: human TRAP promoter/luciferase reporter in 293/EBNA cells; type: cell-based; conditions: 40 ng reporter
Text: as §1
For the human TRAP promoter, the 1.9 kb […] fragment containing the promoter activity isolated from the region upstream of the human TRAP gene (Reddy et al., 1995) was fused to a luciferase reporter and transfected (40 ng) into 293/EBNA cells. The combination of human RANK (SEQ ID NO:2) and human RANK-L (SEQ ID NO:6) increased reporter expression approximately 1.5 fold.

Molecule | c-src activity (c-src tyrosine kinase) | cells with F-actin rings [1] | CaPO4 resorption [2] | increase of reporter expression (luciferase) [3] | increase of reporter expression (luciferase) (human TRAP promoter)
RANK Δ340-421: human RANK (SEQ ID NO:2) with the TRAF6 binding site (amino acids 340-421) deleted (protein, listed as Homo sapiens) MAPRARRRRPLFALLLLCALLARLQVALQIAPPCTSEKHYEHLGRCCNKCEPGKYMSSKCTTTSDSVCLPCGPDEYLDSWNEEDKCLLHKVCDTGKALVAVVAGNSTTPRRCACTAGYHWSQDCECCRRNTECAPGLGAQHPLQLNKDTVCKPCLAGYFSDAFSSTDKCRPWTNCTFLGKRVEHHGTEKSDAVCSSSLPARKPPNEPHVYLPGLIILLLFASVALVAAIIFGVCYRKKGKALTANLWHWINEACGRLSGDKESSGDSCVSTHTANFGQQGACEGVLLLTLEEKTFPEDMCYPDQGGVCQGTCVGGGPYAQGEDARMLSLVSKTEIEEDSLQKEVDSGHCPHWAASPSPNWADVCTGCRNPPGEDCEPLVGSPKRGPLPQCAYGMGLPPEEEASRTEARDQPEDGADGRLPSSARAGAGSGSSPGGQSPASGNVTGNSNSTFISSGQVMNFKGDIIVVYVSQTSQEGAAAAAEPMGRPVQEETLARRDSFAGNGPRFPDPCGGPEGLREPEKASRPVQEQGGAKA | not discernibly different from background levels | no F-actin rings were discerned | insignificant levels of CaPO4 resorption | – | –
RANK (SEQ ID NO:2) and RANK-L (SEQ ID NO:6): co-transfection of expression vectors encoding full-length human RANK and human full-length RANK-L (protein, listed as Homo sapiens) chain 1: MAPRARRRRPLFALLLLCALLARLQVALQIAPPCTSEKHYEHLGRCCNKCEPGKYMSSKCTTTSDSVCLPCGPDEYLDSWNEEDKCLLHKVCDTGKALVAVVAGNSTTPRRCACTAGYHWSQDCECCRRNTECAPGLGAQHPLQLNKDTVCKPCLAGYFSDAFSSTDKCRPWTNCTFLGKRVEHHGTEKSDAVCSSSLPARKPPNEPHVYLPGLIILLLFASVALVAAIIFGVCYRKKGKALTANLWHWINEACGRLSGDKESSGDSCVSTHTANFGQQGACEGVLLLTLEEKTFPEDMCYPDQGGVCQGTCVGGGPYAQGEDARMLSLVSKTEIEEDSFRQMPTEDEYMDRPSQPTDQLLFLTEPGSKSTPPFSEPLEVGENDSLSQCFTGTQSTVGSESCNCTEPLCRTDWTPMSSENYLQKEVDSGHCPHWAASPSPNWADVCTGCRNPPGEDCEPLVGSPKRGPLPQCAYGMGLPPEEEASRTEARDQPEDGADGRLPSSARAGAGSGSSPGGQSPASGNVTGNSNSTFISSGQVMNFKGDIIVVYVSQTSQEGAAAAAEPMGRPVQEETLARRDSFAGNGPRFPDPCGGPEGLREPEKASRPVQEQGGAKA chain 2: MRRASRDYTKYLRGSEEMGGGPGAPHEGPLHAPPPPAPHQPPAASRSMFVALLGLGLGQVVCSVALFFYFRAQMDPNRISEDGTHCIYRILRLHENADFQDTTLESQDTKLIPDSCRRIKQAFQGAVQKELQHIVGSQHIRAEKAMVDGSWLDLAKRSKLEAQPFAHLTINATDIPSGSHKVSLSSWYHDRGWAKISNMTFSNGKLIVNQDGFYYLYANICFRHHETSGDLATEYLQLMVYVTKTSIKIPSSHTLMKGGSTKYWSGNSEFHFYSINVGGFFKLRSGEEISIEVSNPSLLDPDQDATYFGAFKVRDID | – | – | – | approximately 4 fold | approximately 1.5 fold

— patent publication US7572594B2, “Screening assays for agonists or antagonists or receptor activator of NF-κB” (Immunex Corporation, priority 2000, dated 2009)
